The values below come from article PMC5384658, “The evolution of Sex-linked barring alleles in chickens involves both regulatory and coding changes in CDKN2A” (PLoS Genetics, 2017).

The target in data set [1] is chicken MDM2_(204-298) (chicken).
The conditions of data set [2]: ultracentrifugation, far-UV CD and NMR; ref [21], [22]; cited from earlier work. From the text:
The striking phenotypic differences associated with the B0, B1, and B2 alleles imply that the two missense mutations must affect ARF function since all three alleles share the two non-coding changes associated with Sex-linked barring (Fig 1). To learn more about the specific effects of the coding ARF mutations we performed biophysical studies on peptides corresponding to the N-terminus of wild-type and mutant chicken ARF (ARF1-14^WT, ARF1-14^V9D, ARF1-14^R10C) and purified chicken MDM2_204-298. Previously, using a combination of ultracentrifugation, far-UV circular dichroism (CD) and NMR exper ...

Take “ARF_(1-14)^R10C peptide (N-terminus of chicken ARF with R10C, B2 allele) (from UniProt A0A8V0X483 1-14)”: in data set [1], the p53-luc luciferase reporter activity in U2OS cells transfected with chicken ARF (coding region, pcDNA3.1) carrying R10C, compared to wild-type chicken ARF (% of wild type) came out at 77.

As to “ARF_(1-14)^V9D peptide (N-terminus of chicken ARF with V9D, B1 allele) (from UniProt A0A8V0X483 1-14)”, in data set [1], the p53-luc luciferase reporter activity in U2OS cells transfected with chicken ARF (coding region, pcDNA3.1) carrying V9D, compared to wild-type chicken ARF (% of wild type) worked out at 58.

On to “MDM2_210-304: human MDM2 XP_005268929 residues 210-304, corresponding to chicken MDM2_204-298”, for which, in data set [2], the “structure in free state” value is recorded as “intrinsically disordered in their free states”.
